The values below come from patent US20060264369, “Aptamers to von Willebrand Factor and their use as thrombotic disease therapeutics” (published 2006).

As usually defined, the Kd is the free concentration of one partner at which half of the binding sites on the other are occupied at equilibrium, for simple one-to-one binding.

For data set [1], the target named is T1, von Willebrand factor full length (Homo sapiens, UniProt P04275 SEQ:764-2813). Briefly: filter; 46% bound at 100 nM vWF. Conditions: tags: Calbiochem 681300; label: 5'-32P. Here is the method:
(§1) For KD determination, chemically synthesized aptamers were purified using denaturing polyacrylamide gel electrophoresis, 5′end labeled with γ-³²P ATP and were tested for direct binding to full length human vWF (Calbiochem Cat.# 681300, La Jolla, Calif.). An 8 point protein titration was used in the dot blot binding assay (100 nM, 30 nM, 10 nM, 3 nM, 1 nM, 300 pM, 100 pM, 0 pM)) in 1× Dulbecco's PBS containing […] (final volume of 50 uL) for 30 minutes at room temperature. KD values were calculated by fitting the equation y=(max/(1+K/protein))+yint using KaleidaGraph (KaleidaGraph v. 3.51, Synergy Software).

The target of data set [2] is T1, von Willebrand factor full length. Briefly: filter; 36% bound at 100 nM vWF. Conditions: tags: Calbiochem 681300; label: 5'-32P. Here is the method: as §1
Data set [3] has the same target. Kind of data set: filter; 9% bound at 100 nM vWF. Conditions: tags: Calbiochem 681300; label: 5'-32P. Here is the method:
as §1

Data set [4] has the same target. Briefly: filter; 28% bound at 100 nM vWF. Particulars: tags: Calbiochem 681300; label: 5'-32P. Here is the method: as §1
The target is the same in data set [5]. Kind of data set: filter; 56% bound at 100 nM vWF. Conditions: tags: Calbiochem 681300; label: 5'-32P. Here is the method:
as §1

For data set [6] the target is unchanged. Briefly: filter; 50% bound at 100 nM vWF. Conditions: tags: Calbiochem 681300; label: 5'-32P. The protocol: as §1
The target is the same in data set [7]. Kind of data set: filter; 18% bound at 100 nM vWF. Conditions: tags: Calbiochem 681300; label: 5'-32P. Here is the method: as §1
The target is the same in data set [8]. Kind of data set: filter; 39% bound at 100 nM vWF. Particulars: tags: Calbiochem 681300; label: 5'-32P. The protocol:
as §1

Data set [9] has the same target. Kind of data set: filter; only 6% bound at 100 nM vWF. Particulars: tags: Calbiochem 681300; label: 5'-32P. Here is the method:
as §1

Data set [10] has the same target. Briefly: filter; 47% bound at 100 nM vWF. Conditions: tags: Calbiochem 681300; label: 5'-32P. The protocol:
as §1

For data set [11] the target is unchanged. Briefly: filter; 16% bound at 100 nM vWF. Particulars: tags: Calbiochem 681300; label: 5'-32P. Here is the method:
as §1

Data set [12] shares this target. Briefly: filter; 43% bound at 100 nM vWF. Particulars: tags: Calbiochem 681300; label: 5'-32P. The protocol: as §1
Data set [13] shares this target. Kind of data set: filter; 37% bound at 100 nM vWF. Particulars: tags: Calbiochem 681300; label: 5'-32P. Here is the method:
as §1

Data set [14] has the same target. Kind of data set: filter; 23% bound at 100 nM vWF. Particulars: tags: Calbiochem 681300; label: 5'-32P. Here is the method: as §1
For data set [15] the target is unchanged. Kind of data set: filter; 45% bound at 100 nM. Conditions: tags: Calbiochem 681300. Here is the method: as §1
The target is the same in data set [16]. Kind of data set: filter; only 2% bound at 100 nM vWF. Particulars: tags: Calbiochem 681300; label: 5'-32P. The protocol:
as §1

The target is the same in data set [17]. Kind of data set: filter; DPBS, 0.1 mg/mL BSA, RT. Particulars: tags: Calbiochem 681300; label: 5'-32P. The protocol:
Minimers were tested for direct binding to full length human vWF (SEQ ID NO 7), and rabbit vWF A1 domain (SEQ ID NO 6) using a 9 point protein titration (100 nM, 30 nM, 10 nM, 3 nM, 1 nM, 300 pM, 100 pM, 30 pM, 0 pM) (see FIG. 6) in 1×Dulbecco's PBS containing 0.1 mg/mL BSA (final volume of 50 uL) for 30 minutes at room temperature and then applied to a nitrocellulose and nylon filter sandwich in a dot blot apparatus (Schleicher and Schuell, Keene, N.H.). KD values were calculated by fitting the equation y=(max/(1+K/protein))+yint using KaleidaGraph (KaleidaGraph v. 3.51, Synergy Software).

The target is the same in data set [18]. Kind of data set: filter; no binding. Conditions: tags: Calbiochem 681300; label: 5'-32P.
Data set [19] has the same target. Briefly: filter; 33% bound at 100 nM vWF. Particulars: tags: Calbiochem 681300; label: 5'-32P. Here is the method:
as §1

Data set [20] shares this target. Briefly: filter; 29% bound at 100 nM vWF. Particulars: tags: Calbiochem 681300; label: 5'-32P. Here is the method: as §1
For data set [21] the target is unchanged. Briefly: filter; 17% bound at 100 nM vWF. Conditions: tags: Calbiochem 681300; label: 5'-32P. Here is the method: as §1
Data set [22] shares this target. Briefly: filter; 48.3% bound at 100 nM vWF. Particulars: tags: Calbiochem 681300; label: 5'-32P. The protocol:
as §1

The target is the same in data set [23]. Briefly: filter; 25.6% bound at 100 nM vWF. Particulars: tags: Calbiochem 681300; label: 5'-32P. Here is the method:
as §1

Data set [24] shares this target. Kind of data set: filter; 51% bound at 100 nM vWF. Particulars: tags: Calbiochem 681300; label: 5'-32P. Here is the method: as §1
For data set [25] the target is unchanged. Kind of data set: filter; 38.2% bound at 100 nM vWF. Conditions: tags: Calbiochem 681300; label: 5'-32P. Here is the method:
as §1

Data set [26] shares this target. Kind of data set: filter; 29.0% bound at 100 nM vWF. Conditions: tags: Calbiochem 681300; label: 5'-32P. Here is the method:
as §1

Data set [27] has the same target. Briefly: filter; 26.5% bound at 100 nM vWF. Particulars: tags: Calbiochem 681300; label: 5'-32P. Here is the method:
as §1

Data set [28] has the same target. Briefly: filter; 38.5% bound at 100 nM vWF. Conditions: tags: Calbiochem 681300; label: 5'-32P. The protocol: as §1
Data set [29] has the same target. Kind of data set: filter; 22.6% bound at 100 nM vWF. Conditions: tags: Calbiochem 681300; label: 5'-32P. The protocol:
as §1

In the case of GGCGTGCAGTGCCTTCGGCCGTGCGGTGCCTCCGTCACGCC (ssDNA, single PS between G21 and T22, 3'-idT) [ARC1759], the Kd in data set [1] amounted to 0.7 nM. For GGCGTGCAGTGCCTTCGGCCGTGCGGTGCCTCCGTCACGCC (ssDNA) [ARC1115], the Kd in [2] was 2 nM. As for GGCGUGCAGTGCCTTCGGCCGTGCGGTGCCTCCGTCACGCC (mixed, 2'-OMe at 1-6 and 36-41, 3'-idT) [ARC1237], in [3], the Kd is 41 nM. Consider GGCGTGCAGTGCCTTCGGCCGTGCGGTGCCTCCGTCACGCC (ssDNA, 2'-OMe G6, 3'-idT) [ARC1199], for which, in data set [4], the Kd turned out to be 19 nM.

On to GGCGTGCAGTGCCTTCGGCCGTGCGGTGCCTCCGTCACGCC (ssDNA, 2'-OMe G9, 3'-idT) [ARC1202], for which, in [5], the Kd was found to be 0.4 nM.

With GGCGUGCAGTGCCTTCGGCCGTGCGGTGCCTCCGTCACGCC (ssDNA, 2'-OMe U5, 3'-idT) [ARC1198], in data set [6], the Kd came to 0.9 nM. Turning to GGCGTGCAGTGCCTTCGGCCGTGCGGTGCCTCCGTCACGCC (ssDNA, 2'-OMe C24, 3'-idT) [ARC1217], the dissociation constant (Kd) in data set [7] came out at 14 nM. For GGCGTGCAGUGCCTTCGGCCGTGCGGTGCCTCCGUCACGCC (mixed, 2'-OMe at 9, 10, 21, 23, 34-36, 3'-idT) [ARC1339], the dissociation constant (Kd) in data set [8] came to 2.4 nM.

Take GGCGTGCAGTGCCTTCGGCCGTGCGGTGCCTCCGTCACGCC (ssDNA, 2'-OMe A8, 3'-idT) [ARC1201]: the Kd in [9] worked out at 0.9 nM. Take GGCGTGCAGTGCCTTCGGCCGTGCGGTGCCUCCGTCACGCC (ssDNA, 2'-OMe U31, 3'-idT) [ARC1224]: the dissociation constant Kd in [10] was 0.5 nM.

With GGCGTGCAGTGCCTTCGGCCGTGCGGTGCCTCCGTCACGCC (ssDNA, 2'-OMe C32, 3'-idT) [ARC1225], the Kd in [11] was determined as 11 nM. For GGCGTGCAGTGCCTTCGGCCGTGCGGTGCCUCCGUCACGCC (mixed, 2'-OMe at 23, 28, 29, 31, 34-36, 3'-idT) [ARC1340], the equilibrium dissociation constant (Kd) in data set [12] turned out to be 7.4 nM. For GGCGTGCAGTGCCTTCGGCCGTGCGGTGCCTCCGTCACGCC (ssDNA, 3'-idT) [ARC1172], in [13], the Kd was determined as 2 nM. On to GGCGTGCAGTGCCTTCGGCCGTGCGGTGCCTCCGTCACGCC (mixed, 2'-OMe G1 G2 G4 G6 A37 G39, 3'-idT) [ARC1235], for which, in [14], the dissociation constant Kd is 13 nM.

Consider GGCGTGCAGTGCCTTCGGCCGTGCGGTGCCTCCGTCACGCC (ssDNA, 2'-OMe at 11; 3'-idT) [ARC1204], for which the Kd in data set [15] amounted to 2 nM. The same measure, in the same setting: to GGCGTGCAGTGCCTUCGGCCGTGCGGTGCCTCCGTCACGCC (ssDNA, 2'-OMe at 15 (mU); 3'-idT) [ARC1208] belongs 2 nM. Turning to GGCGTGCAGTGCCTTCGGCCGTGCGGTGCCTCCGTCACGCC (ssDNA, 2'-OMe G25, 3'-idT) [ARC1218], the Kd in data set [16] is 32 nM. In the case of GGCGTGCAGTGCCTATTCTAGGCCGTGCGGTGCCTCCGTCACGCC (ssDNA, 3'-idT) [ARC1027], the Kd in [17] worked out at 0.8 nM. For the molecule ATGAGAGTGCTGGTGGATTGCTCAGGTCTGCTGGCTGCTTACTCTCAT (ssDNA) [ARC845], the binding result in data set [18] was “no binding”. With GGCGUGCAGUGCCUUCGGCCGTGCGGTGCCUCCGUCACGCC (mixed, 2'-OMe/deoxy composite as printed in Table 22, 3'-idT) [ARC1342], the Kd in data set [19] worked out at 15.6 nM.

B1: ARC1345 (mixed)
mixed: GGCGUGCAGUGCCUUCGGCCGTGCGGTGCCUCCGUCACGCC
modifications: 2'-OMe/deoxy composite with PS 5' of the deoxy residues as printed in Table 22, 3'-idT
Regarding B1, the Kd in data set [20] was 12.1 nM. Take GGCGUGCAGUGCCUUCGGCCGTGCGGTGCCUCCGUCACGCC (mixed, 2'-OMe/deoxy composite with multiple PS as printed in Table 22, 3'-idT) [ARC1344]: the equilibrium dissociation constant (Kd) in [21] is 4.8 nM. Take CCGGCCGTGCGGTGCCUCCGUCACUUUGUGCAGUGCCGG (mixed, 2'-OMe/deoxy composite, single PS, 3'-idT) [ARC1535]: the equilibrium dissociation constant (Kd) in data set [22] stood at 27.1 nM. In the case of CGGCCGTGCGGTGCCUCCGUCACUUUGUGCAGUGCCG (mixed, 2'-OMe/deoxy composite, single PS, 3'-idT) [ARC1534], the dissociation constant (Kd) in [23] worked out at 62.8 nM.

With GCGUGCAGUGCCUUCGGCCGTGCGGTGCCUCCGUCACGC (mixed, 2'-OMe/deoxy composite, 3'-idT) [ARC1346], the equilibrium dissociation constant (Kd) in [24] was 11 nM.

For the molecule GCGUGCAGUGCCUUCGGCCGTGCGGTGCCUCCGUCACGC (mixed, 2'-OMe/deoxy composite, single PS between mG20 and dT21, 3'-idT) [ARC1368], the Kd in data set [25] was 1.8 nM. For GCGUGCAGUGCCUUUGGCCGTGCGGTGCCUCCGUCACGC (mixed, 2'-OMe/deoxy composite, single PS, 3'-idT) [ARC1526], the dissociation constant (Kd) in [26] worked out at 47 nM.

For the molecule GCGUGCAGUGCCUUCGGCCGTGCGGTGCCUCCGUCACGC (mixed, 2'-OMe/deoxy composite, single PS between mG20 and dT21, 3'-idT) [ARC1524], the equilibrium dissociation constant (Kd) in data set [27] turned out to be 5.7 nM. As for GCGUGCAGUGCCUUCGGCCGTGCGGTGCCUCCGUCACGC (mixed, 2'-OMe/deoxy composite, 3'-idT) [ARC1361], the Kd in data set [28] stood at 7.9 nM. Turning to CGUGCAGUGCCUUCGGCCGTGCGGTGCCUCCGUCACG (mixed, 2'-OMe/deoxy composite, single PS, 3'-idT) [ARC1529], the Kd in data set [29] came to 12.3 nM.
